Laboratory results published in patent US20140087995A1 (published 2014).
Like-named read-outs stand apart in the source and are kept apart here. Numbered stars: 1 amine (or outer) side, 2 acyl side, 3 side chain; on linkers, the order of the positions; unused ones are H or OH. Bridge positions count the residues as written; N and C are the ends. Side chains are listed from the residue outwards. Ends that are not written are not given here. * marks the point of attachment. C20 diacid = O=C(O)CCCCCCCCCCCCCCCCCCC(=O)*; γGlu = O=C(O)[C@H](CCC(=O)[*:2])N[*:1]; AEEA = NCCOCCOCC(=O)O

T1: human amylin 3(a) receptor (human calcitonin receptor co-expressed with RAMP-3) (human, UniProt P30988 25-474; O60896 24-148, limits assumed)
T1 sequence (looked up) 1: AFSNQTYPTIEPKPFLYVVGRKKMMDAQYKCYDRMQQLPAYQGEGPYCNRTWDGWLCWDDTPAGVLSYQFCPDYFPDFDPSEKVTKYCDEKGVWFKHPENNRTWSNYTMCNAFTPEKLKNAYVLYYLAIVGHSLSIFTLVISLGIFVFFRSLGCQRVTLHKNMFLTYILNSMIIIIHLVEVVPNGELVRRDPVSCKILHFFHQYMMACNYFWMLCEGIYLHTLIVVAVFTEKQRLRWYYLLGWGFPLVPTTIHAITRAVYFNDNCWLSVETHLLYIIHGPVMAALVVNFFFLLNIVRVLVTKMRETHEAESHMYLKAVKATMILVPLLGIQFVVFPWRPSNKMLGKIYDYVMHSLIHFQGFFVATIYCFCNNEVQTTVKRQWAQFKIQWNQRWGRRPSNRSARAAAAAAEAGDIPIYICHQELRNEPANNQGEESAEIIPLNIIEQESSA
T1 sequence (looked up) 2: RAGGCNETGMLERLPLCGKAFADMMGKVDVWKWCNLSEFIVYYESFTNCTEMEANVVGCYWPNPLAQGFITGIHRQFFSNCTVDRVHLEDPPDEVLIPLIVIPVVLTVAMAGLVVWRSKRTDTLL

T2: human calcitonin receptor (human, UniProt P30988 25-474)
T2 sequence (looked up): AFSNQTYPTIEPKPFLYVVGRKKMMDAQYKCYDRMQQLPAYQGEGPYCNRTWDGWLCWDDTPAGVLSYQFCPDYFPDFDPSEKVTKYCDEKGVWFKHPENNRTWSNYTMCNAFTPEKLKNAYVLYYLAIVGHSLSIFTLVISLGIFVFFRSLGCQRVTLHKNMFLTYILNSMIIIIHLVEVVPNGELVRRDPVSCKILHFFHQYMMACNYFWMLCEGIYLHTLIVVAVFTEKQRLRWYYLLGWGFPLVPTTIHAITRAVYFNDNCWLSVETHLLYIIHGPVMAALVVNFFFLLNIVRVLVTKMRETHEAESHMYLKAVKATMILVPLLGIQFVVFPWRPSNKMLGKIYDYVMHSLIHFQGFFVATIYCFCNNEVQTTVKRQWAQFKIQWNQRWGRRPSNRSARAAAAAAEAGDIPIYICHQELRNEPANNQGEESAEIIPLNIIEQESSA

T3: human calcitonin receptor (human, UniProt P30988 25-474)
T3 sequence (looked up): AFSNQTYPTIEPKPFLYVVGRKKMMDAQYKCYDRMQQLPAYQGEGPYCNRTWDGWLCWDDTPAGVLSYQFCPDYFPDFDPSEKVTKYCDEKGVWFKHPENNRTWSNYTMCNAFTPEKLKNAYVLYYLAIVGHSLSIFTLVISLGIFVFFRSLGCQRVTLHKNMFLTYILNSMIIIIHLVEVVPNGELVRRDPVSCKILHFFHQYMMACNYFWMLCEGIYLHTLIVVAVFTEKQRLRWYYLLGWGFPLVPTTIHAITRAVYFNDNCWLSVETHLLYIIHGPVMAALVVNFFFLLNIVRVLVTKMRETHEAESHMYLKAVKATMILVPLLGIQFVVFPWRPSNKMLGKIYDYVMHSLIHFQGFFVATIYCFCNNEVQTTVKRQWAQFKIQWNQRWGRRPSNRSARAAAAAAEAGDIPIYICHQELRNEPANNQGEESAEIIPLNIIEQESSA


Columns and labels:
Test in all cases: cell-based or functional assay
[1] = molecular target: T1, human amylin 3(a) receptor (human …)
[2] = molecular target: T2, human calcitonin receptor
[3] = molecular target: T3, human calcitonin receptor; remark: listed apart in the source

hAmylin-R funct. EC50 [1] [nM] | Ratio hCT/hAmylin funct. [2] | hCTR funct. EC50 [2] [nM] | hCTR funct. EC50 [3] [nM] | Binder
0.033 | 7.2 | 0.236 | – | K([AEEA-C20 diacid])CNTATCATQRLAHFLRHSSPNFGAIPSSTNVGSNTY-NH2 (disulfide 2-7; N-terminus assumed; SMILES CC[C@H](C)[C@H](NC(=O)[C@H](C)NC(=O)CNC(=O)[C@H](Cc1ccccc1)NC(=O)[C@H](CC(N)=O)NC(=O)[C@@H]1CCCN1C(=O)[C@H](CO)NC(=O)[C@H](CO)NC(=O)[C@H](Cc1c[nH]cn1)NC(=O)[C@H](CCCNC(=N)N)NC(=O)[C@H](CC(C)C)NC(=O)[C@H](Cc1ccccc1)NC(=O)[C@H](Cc1c[nH]cn1)NC(=O)[C@H](C)NC(=O)[C@H](CC(C)C)NC(=O)[C@H](CCCNC(=N)N)NC(=O)[C@H](CCC(N)=O)NC(=O)[C@@H](NC(=O)[C@H](C)NC(=O)[C@@H]1CSSC[C@H](NC(=O)[C@@H](N)CCCCNC(=O)COCCOCCNC(=O)CCCCCCCCCCCCCCCCCCC(=O)O)C(=O)N[C@@H](CC(N)=O)C(=O)N[C@@H]([C@@H](C)O)C(=O)N[C@@H](C)C(=O)N[C@@H]([C@@H](C)O)C(=O)N1)[C@@H](C)O)C(=O)N1CCC[C@H]1C(=O)N[C@@H](CO)C(=O)N[C@@H](CO)C(=O)N[C@H](C(=O)N[C@@H](CC(N)=O)C(=O)N[C@H](C(=O)NCC(=O)N[C@@H](CO)C(=O)N[C@@H](CC(N)=O)C(=O)N[C@H](C(=O)N[C@@H](Cc1ccc(O)cc1)C(N)=O)[C@@H](C)O)C(C)C)[C@@H](C)O, also called compound 90) [N^ε1-[2-[2-[2-(19-carboxynonadecanoylamino)ethoxy]ethoxy]acetyl]-[His14,Arg17,Pro21,Pro27]-h-amylin]
0.04 | 36.9 | 1.48 | – | K([AEEA-C20 diacid])CNTATCATQRLANFLRHSSPNFGAIPSSTNVGHNTY-NH2 (disulfide 2-7; N-terminus assumed; SMILES CC[C@H](C)[C@H](NC(=O)[C@H](C)NC(=O)CNC(=O)[C@H](Cc1ccccc1)NC(=O)[C@H](CC(N)=O)NC(=O)[C@@H]1CCCN1C(=O)[C@H](CO)NC(=O)[C@H](CO)NC(=O)[C@H](Cc1c[nH]cn1)NC(=O)[C@H](CCCNC(=N)N)NC(=O)[C@H](CC(C)C)NC(=O)[C@H](Cc1ccccc1)NC(=O)[C@H](CC(N)=O)NC(=O)[C@H](C)NC(=O)[C@H](CC(C)C)NC(=O)[C@H](CCCNC(=N)N)NC(=O)[C@H](CCC(N)=O)NC(=O)[C@@H](NC(=O)[C@H](C)NC(=O)[C@@H]1CSSC[C@H](NC(=O)[C@@H](N)CCCCNC(=O)COCCOCCNC(=O)CCCCCCCCCCCCCCCCCCC(=O)O)C(=O)N[C@@H](CC(N)=O)C(=O)N[C@@H]([C@@H](C)O)C(=O)N[C@@H](C)C(=O)N[C@@H]([C@@H](C)O)C(=O)N1)[C@@H](C)O)C(=O)N1CCC[C@H]1C(=O)N[C@@H](CO)C(=O)N[C@@H](CO)C(=O)N[C@H](C(=O)N[C@@H](CC(N)=O)C(=O)N[C@H](C(=O)NCC(=O)N[C@@H](Cc1c[nH]cn1)C(=O)N[C@@H](CC(N)=O)C(=O)N[C@H](C(=O)N[C@@H](Cc1ccc(O)cc1)C(N)=O)[C@@H](C)O)C(C)C)[C@@H](C)O, also called compound 91) [N^ε1-[2-[2-[2-(19-carboxynonadecanoylamino)ethoxy]ethoxy]acetyl]-[Arg17,Pro21,Pro27,His34]-h-amylin]
– | – | – | 1.73 | {C20 diacid-γGlu}-GRCNTATCATQRLAHFLRHSSPNFGAIPSSTNVGHNTY-NH2 (disulfide 3-8; SMILES CC[C@H](C)[C@H](NC(=O)[C@H](C)NC(=O)CNC(=O)[C@H](Cc1ccccc1)NC(=O)[C@H](CC(N)=O)NC(=O)[C@@H]1CCCN1C(=O)[C@H](CO)NC(=O)[C@H](CO)NC(=O)[C@H](Cc1c[nH]cn1)NC(=O)[C@H](CCCNC(=N)N)NC(=O)[C@H](CC(C)C)NC(=O)[C@H](Cc1ccccc1)NC(=O)[C@H](Cc1c[nH]cn1)NC(=O)[C@H](C)NC(=O)[C@H](CC(C)C)NC(=O)[C@H](CCCNC(=N)N)NC(=O)[C@H](CCC(N)=O)NC(=O)[C@@H](NC(=O)[C@H](C)NC(=O)[C@@H]1CSSC[C@H](NC(=O)[C@H](CCCNC(=N)N)NC(=O)CNC(=O)CC[C@H](NC(=O)CCCCCCCCCCCCCCCCCCC(=O)O)C(=O)O)C(=O)N[C@@H](CC(N)=O)C(=O)N[C@@H]([C@@H](C)O)C(=O)N[C@@H](C)C(=O)N[C@@H]([C@@H](C)O)C(=O)N1)[C@@H](C)O)C(=O)N1CCC[C@H]1C(=O)N[C@@H](CO)C(=O)N[C@@H](CO)C(=O)N[C@H](C(=O)N[C@@H](CC(N)=O)C(=O)N[C@H](C(=O)NCC(=O)N[C@@H](Cc1c[nH]cn1)C(=O)N[C@@H](CC(N)=O)C(=O)N[C@H](C(=O)N[C@@H](Cc1ccc(O)cc1)C(N)=O)[C@@H](C)O)C(C)C)[C@@H](C)O, also called compound 100)
